± gives the uncertainty stated by the source.
Assay: amyloid nucleation score (Sup35N fusion, yeast selection) (log enrichment); library NNK3; higher = more nucleation; inactive = no reads after selection
In short: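 Peptides of 20 random codons fused to Sup35N were expressed in psi-negative yeast, induced 24 hours with 100 μM copper sulfate, then grown 7 days at 30°C on medium lacking adenine and uracil. Input and output plasmid inserts were Illumina-sequenced. Nucleation score is the DiMSum log enrichment of output over input reads, centred on the mode score of non-aggregating sequences, excluding sequences with under 100 input reads. Random libraries had three technical output replicates.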

Substance | amyloid nucleation score
RTTVVYTLNLSGTNRRPCYN | 1.66 ± 0.084
RVFIDRDRP | inactive
RVITCWSQQCWHDRCLVCGK | inactive
RVKYL | inactive
RVLSCECKVGRKWICTELFV | inactive
RVLVWTFYEKAKNCAFCRGV | inactive
RVLYGTICIFVGYFLVMSCV | -0.21 ± 0.57
RVLYPVKVYRNDKMADWNN | inactive
RVMRSDDVWMCSSLHDFCAV | inactive
RVNNGT | inactive
RVPGVCVYLCNEVACSTLCI | 2.03 ± 0.079
RVPYFYFPPLR | inactive
RVREPSVAVRECWCYLGDAV | inactive
RVVGRRSNYFVFLFRTLGRN | inactive
RVYHLIWFFYYLYNGHFISS | inactive
RWLPMSNVAGGQKRKMLASL | inactive
RWNLDWSSLSAGHGKYSQEY | inactive
RWNSISI | inactive
RWSVCSCYSWERSGSRSQ | inactive
RYADHAYLVPKFGQTEQENV | inactive
RYDCRQPIAEFVVWAV | inactive
RYDLCLDLALLRGNWWDLYL | inactive
RYDMRVNVVFTCPWRDSNND | 0.894 ± 0.28

Substance | amyloid nucleation score
RYDYFLFLIFSFLCTVDPMV | -0.211 ± 0.31
RYGFDRIPIFLLNVAMNVYP | 0.535 ± 0.58
RYIFNQANSMVQYRFVYDVR | 1.72 ± 0.069
RYLDCFVVVLVSDFMLRYVS | inactive
RYLIVVFASC | inactive
RYLWVLNRIGPVWCSGFRVW | inactive
RYMFWQWRGEL | 0.958 ± 0.17
RYNGSTTGSRLYMLLSMSLN | inactive
RYNLSFFLYFSQANNHQNLF | inactive
RYRIPTSFL | inactive
RYRLKM | inactive
RYRLSMELT | inactive
RYSGANVDNYVN | inactive
RYSLCCYGGFFRYSRDFMRR | 1.14 ± 0.14
RYTFVGT | -0.408 ± 0.68
RYTIGFHLSMDSAYSISFYP | inactive
RYYLFLVPSGVWGYVVLRDS | 0.656 ± 0.21
SACVGFMGPRNIRL | inactive
SADITSTLGRYAFYF | inactive
SAFCCRSMSGVEFLRAFVSK | inactive
SAGDTDRRPVFH | -0.058 ± 1
SAGTLGGYDFVYVAVDSLHR | inactive
SALEKVDGATSIEVLPTNRR | inactive

Substance | amyloid nucleation score
SALKGLTRELSVRVY | inactive
SALLQAIF | inactive
SAMCICLICALGVCPTMDGA | 2.5 ± 0.073
SARGCTNSSSNGLGRGHQTG | inactive
SAWLATGTYEVKAQRG | inactive
SAYKKASVWGLRLQSSRS | inactive
SAYVYTD | -0.156 ± 0.66
SCEDLWNNMIAWMFATSRR | 1.26 ± 0.1
SCILHYSDYATWLGRYVKVI | inactive
SCLRHPSTSSQNKSCLPDIP | inactive
SCMVNMSPVGWDSAGGEQGV | inactive
SCNRSSSV | inactive
SCPLR | inactive
SCRDDLLVMSKVTLITMT | inactive
SCSLCWPIHRDFHMCTSSVC | inactive
SCSSCYIELKWLYLRILLDC | inactive
SCTLQNFRGLKNSFYGYYAT | inactive
SCTYVSFVSSVRVTA | inactive
SCVMSWIFWNFVWCYSVRCV | inactive
SCVWFSL | inactive
SCYSLSSESSCSVGMCSTLG | inactive
SDAVSIWGQKSNISSICNDS | inactive
SDFFTLSS | inactive

Substance | amyloid nucleation score
SDGDVMFLVKIEAGAFSGGM | inactive
SDIYWNGGLMYWICSMSVFI | 2.84 ± 0.078
SDNGEIMILYRLRAVGDFE | inactive
SDPVPVMDIALYLVNPQLPS | inactive
SDRFHVAHNNFLMRGKGFRT | inactive
SDYGSFLEFH | -0.27 ± 0.79
SEFGPIEATSAHMFESPFKG | inactive
SEHFRN | inactive
SELFSEMREESKGRFNIWEV | inactive
SEQFSPCLVGQLRMDYSWI | inactive
SFAKHHDMK | inactive
SFCRRNISKVFYNFNNCATA | inactive
SFCWASKSVHRSRG | inactive
SFDNSWVVGAIELNDFDSWH | inactive
SFERGMSENLFIVGPGEFVG | inactive
SFEYHNWNDM | 0.361 ± 0.18
SFFTKADAGMPDLRSFMESC | inactive
SFGFALLGVVMRITAVRYPY | inactive
SFGTLQKVK | inactive
SFHSPYL | inactive
SFLGCFHGDY | inactive
SFLIGVV | inactive
SFLLFYVLRYP | inactive

Substance | amyloid nucleation score
SFLSWMVFANFKRVHPGWVP | inactive
SFLVSSINNVQGFFSVNGYV | 0.085 ± 0.26
SFLWKIMISCYMMIVFCCVS | inactive
SFNSRIIKRDDCFMDLIFWT | 1.07 ± 0.12
SFQAWVYFVSRLFLECFSSR | inactive
SFQSLTM | inactive
SFRSSSYEDNCLLVVDNVRT | inactive
SFSCYCTLLGLSVHYVNPTV | 1.82 ± 0.1
SFSLNRRWFNIGS | inactive
SFSMIRE | inactive
SFSMKKGQHQLIS | inactive
SFWIV | inactive
SFYGSIQGQNLLTLLNMKTR | inactive
SGASYVQS | inactive
SGCCLDSLYLTIRLDCLRWR | inactive
SGCYNYFCGFLLKYSMYVSL | inactive
SGFVSWN | inactive
SGGKWFIFRCT | inactive
SGGTEKRSKRAGLLLFRTEE | inactive
SGGVFCYQGSPGVVY | inactive
SGLDRWDAEVVSILWVKLTV | 1.44 ± 0.094
SGMLKLSWVVW | 0.667 ± 0.22
SGNDNFYVDCNWLNIIVNET | 2.79 ± 0.078

Substance | amyloid nucleation score
SGRCRSGRQAIRCCILLNVL | inactive
SGSDILISYLLFCYNACLTF | inactive
SGSKR | inactive
SGSRLGHCSSLTMKSSLSVD | 1.06 ± 0.17
SGVMNWKT | inactive
SGWIYMERIAS | inactive
SGYCYGFVMNDGHSSVRGDE | -0.215 ± 0.74
SHIDAIAQGNTVSSCGYV | inactive
SHKNGFFSQETR | inactive
SHKPLDRYLIEWLGLQELLT | inactive
SHLPCLFCYV | inactive
SHLSYYTFKWSSEATRAVPM | 1.82 ± 0.11
SHNVSTWRMICSWLVRPFIR | inactive
SHSMM | -0.218 ± 0.66
SHVSQMWSGYAGNKEEPTAW | 0.928 ± 0.19
SHWYIYSYSVDPCAGHAAVW | inactive
SICCGDSVVFTVSLPVAGSF | inactive
SIDHVLWYNIGRVGSCWSLR | -0.188 ± 0.27
SIGCSSGFGRCLDLG | inactive
SIGELPT | inactive
SIIDKCATTLTDVSGNQLGV | inactive
SIIDKE | -0.605 ± 0.98
SIKSLTIDSCLTS | 0.809 ± 0.2

Substance | amyloid nucleation score
SILLDMSDQFPALGFSLFII | inactive
SIMFGNLSMAKVKYMNFL | 0.862 ± 0.12
SINRTKQCLEVNFHLDDCKA | inactive
SISLITFCRMCDAWLWRFGV | inactive
SITSAPSLYMSGFTKVCSGE | inactive
SIYKE | inactive
SKAMLTVA | inactive
SKEAVLRVNPVVTFFSGSTR | inactive
SKFIRRT | inactive
SKHSVAGQTKC | inactive
SKKYFVHFILVNNFGVGY | inactive
SKMLIWSYLHGGNRCDLSDW | inactive
SKSITEADNPRNILNASGVE | inactive
SKVIAPWYEEMRWWRSTGAV | inactive
SKVQVIFLSSFFGTIQLWVL | inactive
SKVRTVGRLEVSVRIVKTGL | 0.085 ± 0.32
SLATSYVNFILCRLLKFDHT | inactive
SLCDMREWSALVFITHMSMV | inactive
SLCFIWTCMSLVVHTALSVH | inactive
SLCMVTLDKAIRLYYNPMYF | 2.18 ± 0.08
SLDCCNGVDRFKVSNILHYP | inactive
SLDLNCQIMLYKSMRCDEE | 1.61 ± 0.064
SLFFLSMFVHLMDEMWDWES | inactive

Source: the supplement of paper PMC12042874
